B1: DYRK1B (parent)
chain: ARKYFERLPGGGWTLRRTKELRKD
B2: OR3A1 (parent)
chain: PMYFFLGNLSVLDVGCISVTVPSM

Variants of: B1
Assay: protein stability index of a GFP-peptide fusion (GPS, HEK-293T) (PSI 1-6); higher = more stable
Settings: c terminus: a fixed tail appended
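Note: lentivirally expressed fusions sorted by FACS into six bins by GFP to DsRed ratio, PSI derived from sequencing read proportions per bin multiplied by bin number.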

Protein stability index, by site and new letter:
D24: C 2.7 | F 2.3 | A 3.75 | I 3.82 | R 3 | L 2.58 | E 3.63 | W 1.91 | T 3.36 | Q 3.68 | G 3.24 | H 2.54 | K 3.07
K23: L 2.81 | D 2.72 | H 3.33 | N 3.34 | P 3.1 | I 2.58 | V 3.18 | Y 3.07 | T 3.14 | Q 2.83
L21: Q 3.88 | G 3.95 | W 3.76 | I 3.44 | H 3.95 | C 4.41 | P 3.26 | S 4.45 | V 3.7 | E 4.62 | K 3.73
R22: G 4.3 | Y 1.88 | A 4.14 | M 3.88 | K 3.36 | T 4.19 | E 4.04 | Q 3.9 | N 3.97 | L 2.59 | H 3.5 | P 3.48 | F 3.59
E20: M 3.38 | N 3.14 | V 3.47 | W 2.76 | Y 3.6 | Q 3.26 | S 3.34 | R 3.3 | T 3.27

Variants of: B2
Assay: as above
Settings: c terminus: a fixed tail appended

Protein stability index: each site, then its substitutions
L12: F 2.22 | D 3.05 | N 1.49 | S 1.53 | H 2.78 | A 2.37 | I 3.78 | G 2.35 | C 2.83 | E 1.85 | T 4.2 | M 1.62 | Y 3.05
I17: N 4.43 | S 3.03 | Y 1.63 | R 3.71 | W 3.68 | F 3.32 | M 2.76 | E 2.17 | A 3.4 | H 2.75 | D 3.15 | K 2.97 | P 3.39
V11: I 3.56 | Q 2.65 | G 2.77 | S 3.56 | L 2.58 | T 2.86 | Y 2.86 | R 3.13 | F 3.67 | E 3.18 | D 3.12 | N 2.23
G7: F 3.9 | Q 2.31 | Y 2.69 | H 1.39 | E 3.86 | T 2.84 | A 3.1 | N 1.99 | K 2.05 | S 2.72
S18: Q 2.54 | R 3.87 | V 1.8 | Y 2.26 | G 2.33 | T 2.94 | I 3.52 | P 2.5 | A 3.06 | E 2.7 | N 3.31 | K 2.67 | F 1.68 | W 2.37 | D 2.66 | H 3.06
C16: Q 2.99 | P 2.85 | G 2.78 | M 3.08 | Y 2.14 | D 3.14 | K 2.14 | N 2.12 | R 3.48 | S 3.15 | E 2.33 | H 2.83 | T 3.51 | F 2.85
P1: R 3.81 | T 2.16 | E 2.01 | H 2.79 | S 2.89 | Q 3.32 | N 3.87 | C 2.46 | L 4.36 | I 2.88 | Y 2.1 | A 2.23
T20: Y 3.62 | D 1.12 | G 1.69 | P 1.39 | N 2.96 | F 2.71 | M 4.27 | Q 3.11 | I 2.43 | W 2.62 | L 2.99 | E 2.71 | V 3.39
L9: R 3.52 | A 2.42 | C 3.93 | Q 1.96 | T 2.59 | D 2 | S 1.99 | K 2.86 | E 3.5
P22: K 3.56 | I 3.76 | V 2.1 | C 2.72 | M 2.94 | D 2.56 | Y 3.21 | Q 3.27 | E 3.69 | T 2.38 | F 2.46 | L 2.95 | W 3.15
S10: L 2.05 | W 3.31 | R 2.27 | E 3.25 | Q 1.03 | K 3.48 | M 3.29 | Y 3.38 | C 2.81 | F 3.53
D13: C 4.05 | L 3.26 | F 3.38 | N 2.1 | Y 2.55 | K 2.74 | M 2.35 | E 3.63 | V 1.73 | I 3.37 | Q 2.48 | S 2.33 | P 3.47 | G 2.55
G15: Y 1.93 | S 2.12 | D 3.7 | K 2.02 | I 2.83 | N 2.63 | M 3.18 | H 3.73 | R 3.7 | W 2.87 | C 2.71 | A 2 | F 2.94 | P 2.36 | T 2.71
M24: L 1.24 | T 2.89 | C 2.27 | W 3.96 | N 3.98 | P 3.41 | F 3.27 | A 3.27 | V 3.3 | I 2.02 | D 3.67
N8: G 2.71 | P 2.27 | W 3.59 | F 2.06
Y3: C 4.31 | V 4.51 | M 2.3 | H 3.35 | N 2.37 | G 2.22 | F 2.74 | T 4.47
V14: H 2.23 | T 3.36 | G 3.25 | A 3.36 | C 1.99 | Q 1.89 | D 1.96 | R 1.39 | P 4.21 | M 3.24 | N 3.31 | Y 4.29 | L 4.23
F5: N 2.82 | D 2.06 | S 3.9 | P 1.79 | E 1.46 | G 1.83 | H 2.64 | V 2.3
L6: Q 2.67 | A 2.24 | P 1.62 | E 2.34 | V 2.32 | D 1.08 | T 2.21 | M 1.6
S23: I 2.86 | C 2.56 | F 1.78 | V 4.29 | H 2.76 | P 2.46 | R 2.15 | T 2.84 | Y 4.04 | N 2.58 | M 2.67 | K 2.42 | A 3.86 | L 3.71 | G 2.99 | Q 3.82 | D 4.24 | W 2.84
V19: S 3.48 | K 3.29 | M 2.97 | W 1.96 | H 2.77 | A 1.59 | P 2.55 | F 3.66 | L 2.42 | T 4.48 | I 2.3 | Q 3.27 | D 3.51 | Y 2.93 | E 1.14 | R 2.38 | C 3.96
M2: G 2.32 | H 2.67 | K 3.24 | T 2.15 | E 2.1 | I 2.31 | L 4.31
V21: W 2.5 | D 4.14 | R 1.86 | P 2.96 | T 2.02 | K 3.59 | N 3.36 | Q 2.67 | F 1.96 | M 2.58 | C 3.1 | S 2.8 | I 2.55
F4: D 2.63 | T 1.26 | M 4.21 | K 1.52 | S 1.91 | P 3.27 | R 2.19

— the supplement of paper PMC10567573
